In article PMC10309634, “Computer simulation approach to the identification of visfatin-derived angiogenic peptides” (PLOS ONE, 2023):

Tested on: HUVECs
Test: In vitro tube formation assay on Matrigel
Format: cell-based, human
Details: positive controls, 4 hours on Matrigel, compared to the control group
Experimental: HUVECs (2×10^4 cells/well) were seeded on a layer of polymerized Matrigel and treated with or without visfatin-derived peptides. The Matrigel culture was incubated at 37°C in the EGM supplemented with EGM-Supplement Mix® containing 1% FBS. After 4 hours, changes in the cell morphology were observed using a phase-contrast microscope and photographed at 40× magnification. Each sample was assayed in duplicate, and independent experiments were repeated three times. Angiogenesis was analyzed with ImageJ software using an angiogenesis analyzer (Bethesda, MD, USA).

B1: visfatin: Commercial recombinant mouse visfatin (Adipogen Life Science), positive control (protein, UniProt Q99KQ4 1-491, looked up)
Nicotinamide …: MNAAAEAEFNILLATDSYKVTHYKQYPPNTSKVYSYFECREKKTENSKVRKVKYEETVFYGLQYILNKYLKGKVVTKEKIQEAKEVYREHFQDDVFNERGWNYILEKYDGHLPIEVKAVPEGSVIPRGNVLFTVENTDPECYWLTNWIETILVQSWYPITVATNSREQKKILAKYLLETSGNLDGLEYKLHDFGYRGVSSQETAGIGASAHLVNFKGTDTVAGIALIKKYYGTKDPVPGYSVPAAEHSTITAWGKDHEKDAFEHIVTQFSSVPVSVVSDSYDIYNACEKIWGEDLRHLIVSRSTEAPLIIRPDSGNPLDTVLKVLDILGKKFPVTENSKGYKLLPPYLRVIQGDGVDINTLQEIVEGMKQKKWSIENVSFGSGGALLQKLTRDLLNCSFKCSYVVTNGLGVNVFKDPVADPNKRSKKGRLSLHRTPAGNFVTLEEGKGDLEEYGHDLLHTVFKNGKVTKSYSFDEVRKNAQLNIEQDVAPH
number of meshes: not significantly different
